Residue numbers refer to the chain shown, from its start.

Sequences and labels used below:
T1: Human FAP expressed on the cell surface (WI38, CHO-FAP1.9, U87MG cells) (human, UniProt Q12884 1-760)
T1 construct: whole, on cells; Endogenous on WI38 and U87MG cells; from a human FAP cDNA (OriGene) in CHO-FAP1.9 cells; also called hFAP; FAP+ cells
T1 sequence (looked up): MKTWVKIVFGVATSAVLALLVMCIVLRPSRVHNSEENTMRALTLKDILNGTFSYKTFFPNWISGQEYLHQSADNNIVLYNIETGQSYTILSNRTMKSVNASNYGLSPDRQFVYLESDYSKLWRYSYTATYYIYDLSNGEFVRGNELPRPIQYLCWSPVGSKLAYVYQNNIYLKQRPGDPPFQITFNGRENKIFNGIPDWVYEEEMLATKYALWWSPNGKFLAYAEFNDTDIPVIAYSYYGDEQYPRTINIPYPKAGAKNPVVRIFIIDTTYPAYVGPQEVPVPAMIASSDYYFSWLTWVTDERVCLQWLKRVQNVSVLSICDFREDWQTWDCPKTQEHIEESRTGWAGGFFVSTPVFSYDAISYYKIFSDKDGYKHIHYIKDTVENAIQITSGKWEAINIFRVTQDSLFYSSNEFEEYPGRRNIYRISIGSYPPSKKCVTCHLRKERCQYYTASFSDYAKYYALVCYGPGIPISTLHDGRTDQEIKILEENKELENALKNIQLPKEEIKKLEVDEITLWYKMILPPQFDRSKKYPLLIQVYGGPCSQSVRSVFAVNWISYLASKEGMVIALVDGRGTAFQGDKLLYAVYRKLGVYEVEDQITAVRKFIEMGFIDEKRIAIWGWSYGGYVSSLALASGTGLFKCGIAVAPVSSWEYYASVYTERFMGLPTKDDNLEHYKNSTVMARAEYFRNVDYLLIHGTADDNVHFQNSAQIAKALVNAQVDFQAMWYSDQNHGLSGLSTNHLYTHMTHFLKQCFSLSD

T2: Recombinant human FAP (fibroblast activation protein) (human, UniProt Q12884 26-760)
T2 sequence (looked up): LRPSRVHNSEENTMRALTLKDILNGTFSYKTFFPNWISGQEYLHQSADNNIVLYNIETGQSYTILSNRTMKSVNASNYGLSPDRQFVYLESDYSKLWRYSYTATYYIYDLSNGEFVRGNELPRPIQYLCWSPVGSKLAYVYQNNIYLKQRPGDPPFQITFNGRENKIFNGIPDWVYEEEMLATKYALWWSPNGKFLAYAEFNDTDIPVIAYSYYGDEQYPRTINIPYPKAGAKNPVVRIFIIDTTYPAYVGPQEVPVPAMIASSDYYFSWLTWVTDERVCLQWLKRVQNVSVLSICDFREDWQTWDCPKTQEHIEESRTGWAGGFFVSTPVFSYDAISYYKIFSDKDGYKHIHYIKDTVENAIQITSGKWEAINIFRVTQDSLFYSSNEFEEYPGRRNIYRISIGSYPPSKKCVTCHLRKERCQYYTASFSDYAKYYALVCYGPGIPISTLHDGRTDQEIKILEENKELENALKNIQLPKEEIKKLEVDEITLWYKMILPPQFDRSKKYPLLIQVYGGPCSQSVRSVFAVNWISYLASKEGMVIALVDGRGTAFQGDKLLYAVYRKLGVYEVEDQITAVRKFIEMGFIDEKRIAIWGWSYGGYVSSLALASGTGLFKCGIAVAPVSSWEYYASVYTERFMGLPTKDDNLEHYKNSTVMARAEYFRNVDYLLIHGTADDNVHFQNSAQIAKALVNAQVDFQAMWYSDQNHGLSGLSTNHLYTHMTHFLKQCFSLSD

B1: DARPin® protein #5 (designed binder)
chain: MRGSHHHHHHGSYPYDVPDYAGSDLGYTLLEAARRGQDDEVRELLKAGADVNAKDTIGYTPLHYAAQVGHLEIVEVLLKAGADVNAKDTQGITPLHVAAATGHLEIVEVLLKAGADVNAQDSKGRTPADLAAEQGHEDIAEVLQKLN
B2: DARPin® protein #1 (designed binder)
chain: MRGSHHHHHHGSYPYDVPDYAGSDLGKKLLEAARAGQDDEVRILLAAGADVNAKDQYGITPLHLAAFRGHLEIVEVLLKHGAGVNADDMDGRTPLHPAAYKGHLEIVEVLLKNGADVNAQDKFGKTAFDISIDNGNEDLAEILQKLN
B3: DARPin® protein #10 (designed binder)
chain: B2 chain with A33T, Q56E, G83D, D87I, M89Y, D90N, K101S, N113Y
B4: DARPin® protein #13 (designed binder)
chain: MRGSHHHHHHGSYPYDVPDYAGSDLGKKLLEAARAGQDDEVRILLAAGADVNAKDDWGWTPLHLAARHGHLEIVEVLLKAGTDVNAKDKRGVTPLHLAAYIGHLEIAEVLLKAGADVNAKDFQGWTPLHLAAVRGHLEIVEVLLKAGADVNAQDKSGKTPADLAADAGHEDIAEVLQKLN
B5: DARPin® protein #12 (designed binder)
chain: MRGSHHHHHHGSYPYDVPDYAGSDLGKKLLEAARAGQDDEVRILLAAGADVSAKDQWGWTPLHLAARVGHLEIVEVLLKAGADVNAKDVRGVTPLHLAAFHGHLEIVEVLLKAGADVNAKDYAGHTPLHLAAWQGHLEIIEDLLKAGADVNAQDKSGKTPADLAADAGHEDIAEVLQKLN
B6: DARPin® protein #11 (designed binder)
chain: MRGSHHHHHHGSYPYDVPDYAGSDLGKKLLEAARAGQDDEVRILLAAGADVNAKDTWGWTPLHLAAKSGHLEIVEVLLKAGADVNAKDYHGVTPLHLATFWGHLEIVEVLLKAGADVNAKDWYGETPLHLAAIRGHLEIVEVLLKAGADVNAQDKSGKTPADLAADAGHEDIAEVLQKLN
B7: DARPin® protein #17 (designed binder)
chain: MRGSHHHHHHGSYPYDVPDYAGSDLGKKLLEAARAGQDDEVRILMANGADVNATDLMGRTPLHLAASRGHLEIVEVLLKNGADVNADDKYGITSLHLAAFLGHLEIVEVLLKYGADVNAIDFDGRTPLHPAAYRGHLEIVEVLLKHGADVNAQDKFGQTAFDISIDNGNEDLAEILQKLN
B8: DARPin® protein #25 (designed binder)
chain: MRGSHHHHHHGSYPYDVPDYAGSDLGYKLLEAARRGQDDEVRELLKAGADVNAKDVIGYTPLHYAASEGHLEIVEVLLKAGADVNAKDTKGITPLHVAASTGHLEIVEVLLKAGADVNAQDLRGYTPADLAARQGHEDIGEVLQKLN
B9: DARPin® protein #20 (designed binder)
chain: MRGSHHHHHHGSYPYDVPDYAGSDLGEKLLIAALFGQDEEVRILLAAGADVNAKDEWGHTPLHKAALSGHLEIVEVLLKAGADVNAKDQKGSTPLHWAATRGHLEIVEVLLKAGADVNAQDHIGRTPADLAANFGHEDIAEVLQKLN
B10: DARPin® protein #6 (designed binder)
chain: MRGSHHHHHHGSYPYDVPDYAGSDLGKKLLEAARAGQDDEVRELLKAGADVNAKDEWGKTPLHYAAALGHLEIVEVLLKAGADVNAKDQYGATPLHIAAFAGHLEIVEVLLKAGADVNAKDAWGFTPLHLAATRGHLEIVEVLLKAGADVNAQDKSGKTPADLAADAGHEDIVEVLQKLN
B11: DARPin® protein #8 (designed binder)
chain: B10 chain with E56Q, W57H, Q89R, Y90W, A122E, W123V, F125W, T133R, R134F
B12: DARPin® protein #31 (designed binder)
chain: MRGSHHHHHHGSYPYDVPDYAGSDLGKKLLEAARAGQDDEVRELLKAGADVNAKDEFGKTPLHLAAALGHLEIVEVLLKAGADVNAKGLWGETPLHVAAFAGHLEIVEVLLKAGADVNAKDTYGYTPLHLAASRGHLEIVEVLLKAGADVNAQDKSGKTPADLAADAGHEDIAEVLQKLN
B13: DARPin® protein #16 (designed binder)
chain: MRGSHHHHHHGSYPYDVPDYAGSDLGKKLLEAARAGQDDEVRILMANGTDVNATDMTGRTPLHLAALYGHLEIVEVLLKYGADVNALDKFGITPLHLAAFMGHLEIVEVLLKYGADVNAADLDGRTPLHPTAYRGHLEIVEVLLKNGADVNAQDKFGKTAFDISIDNGNEDLAEILQKLN

The target of the first test is T1, Human FAP expressed on the cell surface …. Kind of test: FACS on FAP-expressing WI38 cells, Penta-His AF647 detection. The method, then:
Using multi-well plates, 20,000 WI38 cells were added per well in 50 μl of PBS. 50 μl of appropriate dilutions (2× dilution steps) of ankyrin repeat protein was then added to the cells and incubated for 30 minutes on ice. After the ankyrin repeat protein-binding reaction, cells were washed twice with PBS. Direct immunofluorescent detection of the His-tagged ankyrin repeat proteins using Penta-His AF647 conjugate (QIAgen) and determination of live cells using LIVE/DEAD™ Fixable Green Dead Cell Stain Kit (ThermoFisher) were then performed together in one step. The Penta-His AF647 conjugate and the LIVE/DEAD™ Fixable Green dye were applied to the cells together in 1/200 (Penta-His) and 1/1000 (LID Fixable) final dilutions and incubated for 20-30 minutes on ice. After washing the cells with PBS, cells were re-suspended in 1× CellFix™ buffer (BD Biosciences) (10× stock was diluted 1/10 in water). The samples were incubated in CellFix™ buffer for 15-20 minutes at RT, then spun down at 400 g for 5 min. Supernatant was discarded and cells were re-suspended in 200 μl PBS and stored at 4° C. until acquisition and FACS analysis. Acquisition and FACS analysis, including the determination of median fluorescence intensity (MFI), were done within 5 days after staining using an AttuneNxT instrument. Binding curves were fitted by non-linear regression curve fitting using GraphPad Prism software (v 7.0.4).
EC₅₀ values were determined using standard procedures known to the person skilled in the art. […] Table 2 provides the EC₅₀ values of selected ankyrin repeat proteins as examples.
On to B1, for which the EC50 (commonly the concentration needed to bring the measured effect to its halfway point) worked out at 654 pM.
For the molecule B2, the EC50 was 3170 pM.
Same read-out and setting: the same measure for B3: 512 pM; for B4: 307 pM; for B5: 789 pM.
The molecule B6 had a half-maximal effective concentration (EC50) of 523 pM. Compared with the last molecule, the EC50 is about 1.5-fold lower.

The target of another test is T2, Recombinant human FAP (fibroblast …). Kind of test: cell-based or functional assay.
On to B7, for which the “FAP activity (%)” value was found to be 96%.
Still for that read-out and setting: the same measure for B1: 103%; for B8: 110%; for B2: 115%.
The same measure, in the same setting: the same measure for B3: 120%; for B9: 104%.
Still for that read-out and setting: the same measure for B4: 88%.
Turning to B10, the “FAP activity (%)” value is 146%.
Take B11: the “FAP activity (%)” value was 97%.
Still for that read-out and setting: then B12, with 123%.
On to B13, for which the “FAP activity (%)” value is 97%.
Same read-out and setting: then B5, with 114%.
Same read-out and setting: then B6, with 117%.

The target is the same in a further test. The test can be described thus: SPR (ProteOn), human FAP immobilized on GLC chip. The method, then:
Briefly, human FAP was diluted in 10 mM Na-acetate pH 5.3 buffer and covalently immobilized on a GLC chip (BioRad) to a level of around 2000 resonance units (RU). The interaction of ankyrin repeat protein and hFAP was then measured by injecting 200 μl running buffer (PBS, pH 7.4 containing 0.005% Tween 20®) containing serial dilutions of ankyrin repeat proteins covering a concentration range between 30 nM and 0.5 nM (on-rate measurement), followed by a running buffer flow for at least 25 minutes at a constant flow rate of 100 μl/min (off-rate measurement). The regeneration was performed using 15 μl of 10 mM Glycine pH 2 followed by 15 μl of 124 mM H₃PO₄. The signals (i.e. resonance unit (RU) values) of the interspots and a reference injection (i.e. injection of running buffer only) were subtracted from the RU traces obtained after injection of ankyrin repeat protein (double-referencing). Based on the SPR traces obtained from the on-rate and off-rate measurements, the on- and off-rate of the corresponding ankyrin repeat protein—FAP interaction was determined.
Dissociation constants (KD) were calculated from the estimated on- and off-rates using standard procedures known to the person skilled in the art. […] Table 1 provides the KD values of some selected ankyrin repeat proteins as examples.
B7: the Kd (commonly the free concentration of one partner at which half of the binding sites on the other are occupied at equilibrium, for simple one-to-one binding) turned out to be 63 pM.
For B2, the dissociation constant (Kd) is 3600 pM.
Same read-out and setting: the same measure for B3: 10400 pM; for B9: 115 pM; for B4: 10 pM.
Same read-out and setting: the same measure for B10: 303 pM; for B11: 120 pM.
The same measure, in the same setting: then B12, with 97 pM.
As to B13, the Kd came to 23 pM.
For B5, the Kd stood at 194 pM.
For B6, the Kd stood at 57 pM.

For the origin of these results see patent US20220242973A1 (Molecular Partners, published 2022).
